One test has as its target T1, ALK4 (Homo sapiens, UniProt P36896).
T1 construct: endogenous in cells; host or cells: primary human naive CD4+ T cells from PBMCs
T1 sequence (P36896 24-505): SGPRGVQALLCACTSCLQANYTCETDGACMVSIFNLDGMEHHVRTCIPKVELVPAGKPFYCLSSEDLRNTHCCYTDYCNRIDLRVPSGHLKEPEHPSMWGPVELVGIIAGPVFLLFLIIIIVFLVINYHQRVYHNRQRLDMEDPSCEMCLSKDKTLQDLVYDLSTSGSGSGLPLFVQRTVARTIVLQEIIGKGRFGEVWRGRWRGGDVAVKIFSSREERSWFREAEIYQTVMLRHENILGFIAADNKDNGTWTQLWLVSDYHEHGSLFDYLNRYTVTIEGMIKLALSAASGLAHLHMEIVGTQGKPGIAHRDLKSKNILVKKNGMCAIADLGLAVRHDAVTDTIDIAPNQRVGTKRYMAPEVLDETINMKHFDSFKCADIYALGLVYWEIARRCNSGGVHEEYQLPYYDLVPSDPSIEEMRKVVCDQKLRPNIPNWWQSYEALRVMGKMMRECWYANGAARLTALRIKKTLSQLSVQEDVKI
Kind of test: SMAD2/3 inhibition experiments (ALK4 inhibitors) in Tfh differentiation. It counts as cell-based. Conditions: activin A+IL-12, 5 days, vs vehicle (DMSO).

Test [1] deals with SMAD2/3. Kind of test: Analysis of phosphorylated SMAD2/3 in tonsil CD4 T cells. Conditions: tonsil naïve CD4 T cells, activin A+Galunisertib. The test is classed as cell-based, human. The source says:
(§1) Fresh PBMCs and tonsil mononuclear cells were serum-starved over night in AIM-V medium. […] Following stimulation, the cells were fixed in BD Phosflow™ Fix Buffer I (BD Biosciences), then permeabilized using BD Phosflow™ Perm Buffer III (BD Biosciences) following manufacture's instruction.

Test [2] deals with SMAD2/3. Kind of test: Analysis of phosphorylated SMAD2/3 in blood naïve CD4 T cells. The test is classed as cell-based, human. Conditions: activin A + SB 431542 (10 μM).
Description: as §1

Test [3] has as its system human naïve CD4 T cells. Kind of test: Screening of secretomics recombinant proteins for Tfh marker induction. The test is classed as cell-based. The note with it: secretomics protein screen, anti-CD3/CD28 beads, 5 days, automated FACS. Here is the method: FIG. 1A-D: Inhibin beta A (INHBA) emerged from the screen as potent regulator of human Tfh differentiation. (A) Schematic of primary screen. Purified human naïve CD4 T cells from a leukapheresis donor were stimulated by anti-CD3/CD28 beads on 384 well plates on day 0. The GNF secretomics recombinant proteins were added at the beginning of the stimulation. Each secretomics protein was tested in duplicate. After 5 days of in vitro culture, cells were evaluated by automated FACS analysis for the expression of Tfh signature markers, including CXCR5 and PD-1. (B) Primary screen results. Relative enrichment of PD-1^+CXCR5^+ cell induction is reported as Z score for each recombinant protein. INHBA gene product is shown in red. (C) CXCR5 and PD-1 expression from repeat experiment in which INHBA gene product was tested again for its capacity to induce Tfh-like differentiation. (D) Confocal microscopy of INHBA expression in human tonsils. Tonsil sections were stained with anti-INHBA (red) anti-BCL6 (blue) and anti-CD3 (green) Abs. An overlay from one donor representative of six is shown on the left panel. […]
Naïve CD4^+ T cells were isolated from leukapheresis-derived mononuclear cells via CliniMACS negative selection (Miltenyi Biotec). […] Induction of CXCR5 and PD-1 was assessed after 5 days of in vitro culture using automated FACS acquisition via HTS on LSR Fortessa (BD Biosciences). For each 384 well plate, mean and standard deviation of PD-1^+CXCR5^+ cell frequency induced by each individual recombinant proteins was determined and used to calculate the Z score. Z scores of replicate plates were analyzed independently.
To discover novel regulators of human Tfh cell differentiation, we performed an unbiased high throughput screen of a human extracellular proteome library consisting of over 2000 human proteins predicted or known to be cytokines, chemokines, morphogens, costimulatory receptors, or single pass transmembrane molecules^19. […] Following 5 days, expression of the Tfh signature markers CXCR5 and PD-1 were measured on the cells by flow cytometry, in an automated fashion. […]

The test system of test [4] is human naïve CD4 T cells. The test is described as follows: Intracellular cytokine staining after PMA/Ionomycin restimulation. It counts as cell-based. Conditions: cells cultured with IL-12, PMA/Ionomycin re-stimulation. As to the method: (§2) For surface staining, primary-staining panels used for phenotypic analysis or for cell sorting known in the art were used. For the intranuclear staining: cells were treated with the FoxP3 Fixation/Permeabilization kit (eBioscience) and stained in Permeabilization buffer (eBioscience). For cytokine staining: day 3 or day 5 in vitro differentiated cells (specified in the main text or in figure legends) cells were stimulated for 5 hours at 37° C. with Phorbol 12-myristate 13-acetate (PMA, 25 ng/ml) and Ionomycin (1 μg/ml) in the presence of Brefeldin A (5 μg/ml). Cells were fixed with PBS 2% FBS, 1% PFA and permeabilized with PBS 2% FBS, 0.5% Saponin (from quillaja bark, Sigma-Aldrich). Samples were analyzed on a LSR Fortessa Cell Analyzer (BD, Bioscience). Flow cytometry data were analyzed with FlowJo (Tree Star). For cell sorting, cells were sorted using sorted using a FACS Aria (BD, Bioscience).

For test [5], the system named is human naïve CD4 T cells. The test is described as follows: In vitro Tfh differentiation, PD-1 and CXCR5 expression by FACS. The note with it: for synergy with activin A on CXCR5 and PD-1 expression: IL-12 family cytokine added to activin A, serum-free conditions. It counts as cell-based. As to the method: as §2
Unless differently specified, naïve CD4^+ T cells were enriched from PBMCs by magnetic bead negative selection with the Naïve CD4^+ T Cell Isolation Kit (Stem Cell Technologies). Purity (CD4^+CD45RA^+) was 90% or higher. Cells (7.5×10^4 cells/well) were activated by Dynabeads Human T-Activator CD3/CD28 (2 μl/well, Life Technologies) and cultured with recombinant human/mouse/rat activin A (50 ng/ml or 100 ng/ml), recombinant human IL-12 (5 ng/ml), recombinant human TGFβ (1 ng/ml), recombinant human IL-23 (10 ng/ml) or recombinant human IL-35 (10 ng/ml) in the presence of and recombinant human IL-7 (4 ng/ml) in AIM-V medium (Life Technologies). All cytokines were from R&D System and Peprotech. The 14 kDa mature human beta A chain of human activin A shares 100% amino acid sequence identity with bovine, feline, mouse, porcine, and rat beta A. Phenotype was quantified after 3 or 5 days, as specified in the main text of Figure legends. Similar results were obtained when using Treg-depleted FACS sorted naïve CD4 T cells, in which cells were sorted from total PBMCs by flow cytometry as CD19^−CD8^−CD14^−CD16^− CD4^+CD45RO^−CD25^− cells. For experiments quantifying supernatant CXCL13 concentration, cells were activated by plate-bound anti-human CD3 (5 μg/ml, BD) and ICOS-L (5 μg/ml, recombinant human B7-H2, R&D). CXCL13 concentrations were determined via human CXCL13 DuoSet ELISA (R&D) on supernatants harvested after 5 days of in vitro culture. For blocking experiments, cells were cultured with anti-activin A blocking mAb (5 μg/ml, clone 69403, R&D), anti-TGFβ mAb (100 μg/ml, clone 1D11.16.8, BioXcell), or equivalent concentration of mouse IgG1 isotype mAb (BioXcell). For blockade of IL-2, cells were cultured with anti-IL-2 blocking mAb (10 μg/ml, clone 5334, R&D) or mouse IgG1 isotype mAb (BioXcell).

In test [6] the test system is autologous memory B cells. The test is described as follows: T-B co-culture, B cell help. The test is classed as cell-based, human. Conditions: T-B co-cultures.

Consider `Cc1cccc(-c2nn3c(c2-c2ccnc4ccc(C(N)=O)cc24)CCC3)n1` [Galunisertib, reference compound], for which the “suppression of PD-1+CXCR5+ cell generation in response to activin A” value on ALK4 was “potent suppression”. The “inhibition of activin A-induced SMAD2/3 phosphorylation” value in the test with SMAD2/3 [1] is reported as “abolished”.

`NC(=O)c1ccc(-c2nc(-c3ccc4c(c3)OCO4)c(-c3ccccn3)[nH]2)cc1` [SB 431542, reference compound]: the “reduction of activin A-mediated SMAD2/3 phosphorylation” value in the test with SMAD2/3 [2] is “strong reduction”.

B1: product of the Inhibin beta A gene (INHBA): secreted recombinant protein from the secretomics collection; forms the cytokine activin A as a homodimer (protein, UniProt P08476 311-426, looked up)
Inhibin beta A chain: GLECDGKVNICCKKQFFVSFKDIGWNDWIIAPSGYHANYCEGECPSHIAGTSGSSLSFHSTVINHYRMRGHSPFANLKSCCVPTKLRPMSMLYYDDGQNIIKKDIQNMIVEECGCS
modifications: Inhibin beta A chain
Turning to B1, the “induction of CXCR5 and PD-1 expression (PD-1+CXCR5+ cells)” value in the test on human naïve CD4 T cells [3] was “most potent inducer of CXCR5 and PD-1”.

B2: IL-12: recombinant human cytokine (protein, UniProt P29459 23-219; P29460 23-328, looked up)
Interleukin-12 subunit alpha: RNLPVATPDPGMFPCLHHSQNLLRAVSNMLQKARQTLEFYPCTSEEIDHEDITKDKTSTVEACLPLELTKNESCLNSRETSFITNGSCLASRKTSFMMALCLSSIYEDLKMYQVEFKTMNAKLLMDPKRQIFLDQNMLAVIDELMQALNFNSETVPQKSSLEEPDFYKTKIKLCILLHAFRIRAVTIDRVMSYLNAS
Interleukin-12 subunit beta: IWELKKDVYVVELDWYPDAPGEMVVLTCDTPEEDGITWTLDQSSEVLGSGKTLTIQVKEFGDAGQYTCHKGGEVLSHSLLLLHKKEDGIWSTDILKDQKEPKNKTFLRCEAKNYSGRFTCWWLTTISTDLTFSVKSSRGSSDPQGVTCGAATLSAERVRGDNKEYEYSVECQEDSACPAAEESLPIEVMVDAVHKLKYENYTSSFFIRDIIKPDPPKNLQLKPLKNSRQVEVSWEYPDTWSTPHSYFSLTFCVQVQGKSKREKKDRVFTDKTSATVICRKNASISVRAQDRYYSSSWSEWASVPCS
As to B2, the IL-21 production result in the test with human naïve CD4 T cells [4] is listed as “capable of producing IL-21”. Further, the “synergy with activin A on CXCR5 and PD-1 expression” value in the test on human naïve CD4 T cells [5] is given as “enhanced”. Further, in test [6], the “contribution to B cell helper activity of in vitro differentiated Tfh cells” value was “driven entirely by IL-12”.

B3: IL-23: recombinant human cytokine of the IL-12 cytokine family (protein, UniProt Q9NPF7 20-189; P29460 23-328, looked up)
Interleukin-23 subunit alpha: RAVPGGSSPAWTQCQQLSQKLCTLAWSAHPLVGHMDLREEGDEETTNDVPHIQCGDGCDPQGLRDNSQFCLQRIHQGLIFYEKLLGSDIFTGEPSLLPDSPVGQLHASLLGLSQLLQPEGHHWETQQIPSLSPSQPWQRLLLRFKILRSLQAFVAVAARVFAHGAATLSP
Interleukin-12 subunit beta: B2 Interleukin-12 subunit beta
For B3, in the test on human naïve CD4 T cells [5] (FIG. 15, interleukin combined with TGFβ or activin A), the “synergy with TGFβ or activin A, induction of CXCR5+ or CXCR5+PD1+ cells” value is “synergizes with TGFβ or activin A but less potently than IL-12”. Further, the “synergy with activin A on CXCR5 and PD-1 expression” value with human naïve CD4 T cells [5] is reported as “modest but detectable synergistic activity with activin A”.

Source of the values: patent US20180111991A1, “MODULATORS OF ACTIVIN AND METHODS FOR MODULATING IMMUNE RESPONSES AND T FOLLICULAR HELPER CELLS” (LA JOLLA INSTITUTE FOR ALLERGY AND IMMUNOLOGY, priority 2014, published 2018).
